Kd and binding signal data for 2 sequences are collected here from publication PMC3143144.

The target of data set [1] is αE2 (isolated E2 DNA-recognition helix peptide) (Human papillomavirus type 16?) (UniProt P06790). Briefly: EMSA.
Data set [2] shares this target. Briefly: DNA melting.

Chain of UniProt P06790 (P06790 whole entry): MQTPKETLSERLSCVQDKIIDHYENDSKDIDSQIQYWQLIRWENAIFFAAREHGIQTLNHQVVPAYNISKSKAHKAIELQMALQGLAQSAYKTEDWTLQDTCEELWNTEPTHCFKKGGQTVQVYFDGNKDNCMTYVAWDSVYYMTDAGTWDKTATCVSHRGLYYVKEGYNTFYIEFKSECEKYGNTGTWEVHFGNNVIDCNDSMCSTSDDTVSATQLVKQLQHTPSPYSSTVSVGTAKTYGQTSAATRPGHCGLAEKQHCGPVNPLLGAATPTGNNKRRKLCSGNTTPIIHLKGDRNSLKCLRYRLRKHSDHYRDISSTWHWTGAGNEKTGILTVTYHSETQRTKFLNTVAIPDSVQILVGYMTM

Turning to “ACATGGACCTGTCAAGTA (double strand) [Iset non E2-non Dst]”, in data set [1], the dissociation constant Kd came to 50 µM.
As to “GTAGCACAAATCGGTTGA (double strand) [hemisite E2-Dst]”, in data set [1], the Kd was 6.3 µM. Moreover, the binding signal in data set [2] is 2 C (ΔTm).

As a reminder, the Kd is the free concentration of one partner at which half of the binding sites on the other are occupied at equilibrium, for simple one-to-one binding. High values mean weaker binding, low ones tighter binding.
